Data on two compounds can be found in publication PMC7570111, “Iron-Sulfur Cluster Complex Assembly in the Mitochondria of Arabidopsis thaliana” (Plants, 2020).

One assay concerns the target T1, AtNFS1 alone (Arabidopsis thaliana, UniProt O49543).
T1 construct: gene NIFS1; mature form, pET32a with His6 tag and TEV site, codon-optimised, E. coli expression; about 48 kDa with His6
T1 sequence (O49543 35-453): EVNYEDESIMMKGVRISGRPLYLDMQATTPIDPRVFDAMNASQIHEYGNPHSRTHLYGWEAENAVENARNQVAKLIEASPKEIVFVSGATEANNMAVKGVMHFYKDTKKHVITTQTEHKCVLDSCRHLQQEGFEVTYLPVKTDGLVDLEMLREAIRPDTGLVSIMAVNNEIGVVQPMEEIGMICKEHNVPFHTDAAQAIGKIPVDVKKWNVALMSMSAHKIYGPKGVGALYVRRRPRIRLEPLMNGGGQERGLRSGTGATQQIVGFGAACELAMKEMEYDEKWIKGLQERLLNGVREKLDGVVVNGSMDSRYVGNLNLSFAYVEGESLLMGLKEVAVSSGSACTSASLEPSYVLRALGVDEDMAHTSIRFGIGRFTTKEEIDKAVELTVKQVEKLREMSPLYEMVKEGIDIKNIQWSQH
Nature of the assay: L-alanine production, ninhydrin colorimetric assay at […] nm. Format: biochemical. To be noted: no AtFH or AtISD11, 25 mM Tris-HCl pH 8, 100 mM NaCl, 10 uM PLP, 100 uM DTT, 37 °C, low activity.

Assay [1] has as its target AtNFS1-His6 (cysteine desulfurase AtNFS1 from Arabidopsis thaliana, mature form, His6-tagged) (Arabidopsis thaliana) (UniProt O49543).
Assay [2] has the same target. This is another data set of the same source.

On to `N[C@@H](CS)C(=O)O` [L-cysteine], for which the “L-alanine production, ninhydrin colorimetric assay at 565 nm” value at AtNFS1 alone is “in the presence of its substrates, AtNFS1 alone shows low cysteine desulfurase activity”. Consider “AtFH (frataxin from Arabidopsis thaliana, mature form, without His6 tag) (natural protein)”, for which the attenuation of the Fenton reaction (decrease in malondialdehyde produced from dRibose, Fe(II) and H2O2) with AtFH, AtNFS1 and AtISD11 together (30 uM each); AtFH alone about 40% in assay [1] is 80%. In assay [2], the cysteine desulfurase activity of AtNFS1 in the presence of AtFH and AtISD11 (1:1:1 molar ratio), Vmax is 47.8 U/mg.
